Results as given in the supplement of paper PMC10567573.

B1: PHTF1 (parent)
chain: RVKLISNKGTETDNDPSCVHPIIK

Variants of: B1
Experiment: protein stability index of a GFP-peptide fusion (GPS, HEK-293T) (PSI 1-6); higher = more stable
Details: c terminus: a fixed tail appended
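Also: lentivirally expressed fusions sorted by FACS into six bins by GFP to DsRed ratio, PSI derived from sequencing read proportions per bin multiplied by bin number.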

Protein stability index: each site, then its substitutions
V19: H 3.87; Q 4.21; G 3.89; F 3.31; C 3.93; E 4.32; K 4.28; N 4.38; P 4.64; I 3.84; L 3.68; A 4.34; M 3.88; D 4.74
T10: Y 3.94
D13: N 3.68; M 3.48; H 3.51; L 3.4; W 2.48; I 3.24; F 2.96; T 3.76; Y 2.74; P 3.26; V 3.5; E 4.21; K 3.74; Q 3.9; A 3.72; G 3.89; R 3.76; S 3.85; C 3.21
D15: Q 3.82; V 3.68; G 3.67; A 3.8; C 3.09; N 4.06; P 4.1; K 3.79; W 2.04; L 3.27; H 3.64; Y 3; M 3.62; T 3.56; F 2.87; I 3.29; S 3.9; R 3.45; E 3.94
E11: R 3.45; F 2.71; I 3.24; Q 3.57; G 3.57; K 3.7; Y 3; H 3.41; C 3.69; S 3.55; P 3.95; T 3.82; A 4.04; M 3.13; W 2.43; L 3.41; D 4.05; N 4.04; V 3.16
N14: T 4.16; P 4.3; L 3.48; E 4.53; G 3.83; V 4.26; S 4.56; C 3.72; I 3.06; K 3.65; Y 3.73; R 3.71; A 4.25; D 4.04; H 3.82; M 3.6; W 2.65; F 3.06; Q 4.29
P16: R 3.96; K 4.06; A 3.98; S 4.4; G 4.55; N 3.68; E 4.18; D 4.13; H 3.88; L 3.38; W 2.37; Y 3.13; F 3.48; M 3.96; Q 4.03; T 3.94; I 3.67; V 3.97; C 3.82
C18: S 4.42; G 4.3; D 4.46; T 4.42; K 4.32; A 4.01; L 4.09; Q 4.28; W 2.77; I 4.23; Y 3.77; M 4.19; E 4.85; R 4.08; F 3.79; N 4.5; P 4.03; H 4.49; V 4.58
T12: E 4.53; L 3.61; W 3.11; H 4.24; V 4.01; G 4.14; M 3.44; A 4.11; I 3.86; S 4.09; D 4.31; R 3.95; Y 3.25; P 4.29; N 4.26; F 3.67; Q 4.18; C 3.87; K 4.49
S17: A 4.42; H 4.06; M 3.59; Q 4.18; T 4.27; G 4.21; F 3.12; N 4.01; C 3.53; D 4.08; L 3.93; P 4.41; W 2.96; V 4.16; E 4.71; K 4.22; I 3.29; R 3.99; Y 3.36
